Measured values taken from US6399570B1, “Antimicrobial/endotoxin neutralizing polypeptide” (priority 1999, dated 2002).

How the values were obtained:
E. coli 0111 = assay: Time course of E. coli growth in the presence of LF polypeptides; format: cell-based; details: 50 μM, seven hour time course, OD 600 nm
Experimental: To investigate whether regions of the molecule involved in GAG binding activity of the 6 kDa LF polypeptide (generated from pepsin digestion) are also involved in the antimicrobial activity of the 6 kDa polypeptide of the present invention, polypeptides of various lengths corresponding to the N-terminal amino acid sequence of LF were tested for the ability to inhibit the growth of E. coli 0111. Overnight cultures were grown over a seven hour time course in the presence of 50 μM of either LF, a 33-mer corresponding to amino acids 1-33 of LF, a 26-mer corresponding to […] of LF, a 27-mer corresponding to amino acids 1-27 of LF. […] This is consistent with LF and the 33-mer inhibiting bacterial growth via different mechanisms. […] The failure of the 26-mer and the 27-mer to inhibit culture growth emphasizes the importance of retaining both clusters of basic residues, at the termini of the 33-mer, for the antimicrobial functionality of polypeptides derived from the N-terminal LF sequence.
Time course of E. coli growth in the presence of LF polypeptides. E. coli cells, clinical isolate strain 0111, were obtained from ATCC. […] Culture growth was monitored spectrophotometrically by measuring optical density at 600 nm at each indicated time point.

[1] = test system: lipid A from E. coli 0113; assay: LAL assay, neutralization of lipid A endotoxin activity (FIG. 6); format: biochemical; details: lipid A 30 ng/ml
Experimental: The lipid A region of the LPS molecule is primarily responsible for the inflammatory and toxic effects of LPS. When LPS is released from the microbe, the lipid A portion may become more accessible. The following assays were performed to determine the potential of various amino-terminal LF polypeptides to neutralize the endotoxic activity of the lipid A portion of LPS. LF, the 6 kDa fragment of LF, LF-33, LF-27, and polymyxin B were each tested for the ability to neutralize the endotoxin activity of lipid A from E. coli 0113 (30 ng/ml), using a LAL assay. […] The endotoxin activity of the smaller fragments of LF indicate that endotoxin-neutralizing activity of these small polypeptides is masked when in the context of the intact LF molecule.

B1: LF: 80 kDa iron-binding glycoprotein, purified from human colostrum (protein, UniProt P02788 20-710, looked up)
Lactotransferrin: GRRRSVQWCAVSQPEATKCFQWQRNMRKVRGPPVSCIKRDSPIQCIQAIAENRADAVTLDGGFIYEAGLAPYKLRPVAAEVYGTERQPRTHYYAVAVVKKGGSFQLNELQGLKSCHTGLRRTAGWNVPIGTLRPFLNWTGPPEPIEAAVARFFSASCVPGADKGQFPNLCRLCAGTGENKCAFSSQEPYFSYSGAFKCLRDGAGDVAFIRESTVFEDLSDEAERDEYELLCPDNTRKPVDKFKDCHLARVPSHAVVARSVNGKEDAIWNLLRQAQEKFGKDKSPKFQLFGSPSGQKDLLFKDSAIGFSRVPPRIDSGLYLGSGYFTAIQNLRKSEEEVAARRARVVWCAVGEQELRKCNQWSGLSEGSVTCSSASTTEDCIALVLKGEADAMSLDGGYVYTAGKCGLVPVLAENYKSQQSSDPDPNCVDRPVEGYLAVAVVRRSDTSLTWNSVKGKKSCHTAVDRTAGWNIPMGLLFNQTGSCKFDEYFSQSCAPGSDPRSNLCALCIGDEQGENKCVPNSNERYYGYTGAFRCLAENAGDVAFVKDVTVLQNTDGNNNEAWAKDLKLADFALLCLDGKRKPVTEARSCHLAMAPNHAVVSRMDKVERLKQVLLHQQAKFGRNGSDCPDKFCLFQSETKNLLFNDNTECLARLHGKTTYEKYLGPQYVAGITNLKKCSTSPLLEACEFLRK
E. coli 0111
  growth of E. coli 0111 cultures: transient growth suppressing effect
[1]
  lipid A neutralizing activity: no appreciable lipid A neutralizing activity
